T1: recombinant human complement C2 (NP_000054.2), C-terminal 6His-tag, made in house (CHO cell expression) (human, UniProt P06681 21-752)
T1 construct: a linker before the tag is not described; also called human C2; Human C2
T1 sequence: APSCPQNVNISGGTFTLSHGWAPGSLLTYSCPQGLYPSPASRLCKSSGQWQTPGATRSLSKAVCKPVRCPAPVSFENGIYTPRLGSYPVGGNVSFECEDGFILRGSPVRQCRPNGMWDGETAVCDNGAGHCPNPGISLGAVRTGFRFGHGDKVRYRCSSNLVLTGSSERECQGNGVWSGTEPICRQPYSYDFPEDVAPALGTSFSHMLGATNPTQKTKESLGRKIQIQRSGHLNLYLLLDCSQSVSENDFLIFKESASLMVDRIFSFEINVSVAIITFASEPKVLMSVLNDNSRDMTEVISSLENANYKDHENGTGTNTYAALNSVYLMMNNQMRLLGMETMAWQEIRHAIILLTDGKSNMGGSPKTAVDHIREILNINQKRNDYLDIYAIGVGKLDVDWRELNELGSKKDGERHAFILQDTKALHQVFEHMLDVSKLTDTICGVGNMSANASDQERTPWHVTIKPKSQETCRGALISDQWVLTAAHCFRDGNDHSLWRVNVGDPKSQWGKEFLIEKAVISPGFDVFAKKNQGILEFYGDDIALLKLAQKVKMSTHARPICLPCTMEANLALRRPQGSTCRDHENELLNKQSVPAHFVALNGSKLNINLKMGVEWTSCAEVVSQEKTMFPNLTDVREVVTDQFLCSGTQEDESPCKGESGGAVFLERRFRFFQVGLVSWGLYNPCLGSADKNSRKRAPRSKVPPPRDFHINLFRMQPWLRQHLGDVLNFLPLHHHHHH

T2: recombinant human C2a, C-terminal 6His-tag, made in house (CHO cell expression) (human, UniProt P06681 244-752)
T2 sequence: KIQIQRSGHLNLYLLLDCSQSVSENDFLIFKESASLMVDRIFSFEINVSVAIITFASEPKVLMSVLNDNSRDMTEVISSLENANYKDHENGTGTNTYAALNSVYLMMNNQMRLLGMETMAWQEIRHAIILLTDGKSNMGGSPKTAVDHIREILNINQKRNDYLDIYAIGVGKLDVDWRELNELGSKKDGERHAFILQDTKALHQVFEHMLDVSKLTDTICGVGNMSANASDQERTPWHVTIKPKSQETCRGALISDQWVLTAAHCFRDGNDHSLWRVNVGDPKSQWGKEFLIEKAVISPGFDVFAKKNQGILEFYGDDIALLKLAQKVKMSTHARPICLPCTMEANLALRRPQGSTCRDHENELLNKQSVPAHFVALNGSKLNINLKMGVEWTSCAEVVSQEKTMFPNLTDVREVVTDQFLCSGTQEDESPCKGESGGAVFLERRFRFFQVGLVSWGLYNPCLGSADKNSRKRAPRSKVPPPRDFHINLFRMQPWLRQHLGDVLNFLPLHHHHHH

T3: recombinant cyno C2a, C-terminal 6His-tag, made in house (CHO cell expression) (cynomolgus monkey, UniProt P06681 244-752 (human entry))
T3 chain: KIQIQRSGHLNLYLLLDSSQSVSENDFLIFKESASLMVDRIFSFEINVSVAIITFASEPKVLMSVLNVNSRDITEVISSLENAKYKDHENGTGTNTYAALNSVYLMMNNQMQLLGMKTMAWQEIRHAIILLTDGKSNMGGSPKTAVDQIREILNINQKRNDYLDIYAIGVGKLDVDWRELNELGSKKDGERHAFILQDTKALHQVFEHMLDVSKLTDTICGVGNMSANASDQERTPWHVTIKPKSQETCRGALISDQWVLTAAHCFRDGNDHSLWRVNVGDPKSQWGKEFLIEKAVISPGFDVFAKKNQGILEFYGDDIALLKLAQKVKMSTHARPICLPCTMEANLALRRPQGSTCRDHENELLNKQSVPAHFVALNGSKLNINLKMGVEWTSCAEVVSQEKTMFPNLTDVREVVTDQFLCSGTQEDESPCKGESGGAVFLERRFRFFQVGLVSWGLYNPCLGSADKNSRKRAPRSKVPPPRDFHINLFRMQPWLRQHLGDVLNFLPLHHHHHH


How the values were obtained:
[1] = target: T1, recombinant human complement C2 …; assay: BLI (Gator), antibody on probe; 600 s association at pH 7.4, 600 s dissociation at pH 7.4
Procedure: The histidine mutant constructs in Table 4 were tested for their pH-dependent dissociation from human C2. Probe-immobilized anti-C2 antibodies were incubated with C2 at pH 7.4 for 600s, followed by a 600s dissociation period in K Buffer at pH 7.4 or pH 5.8. The data were processed and analyzed by the Gator evaluation software.

[2] = target: T2, recombinant human C2a, C-terminal …; assay: ELISA on human C2a, OD450nm against log Ab conc. (nmol/L)
[3] = target: T3, recombinant cyno C2a, C-terminal …; assay: ELISA on cyno C2a, OD450nm against log Ab conc. (nmol/L)
[4] = target: T3, recombinant cyno C2a, C-terminal …; assay: binding kinetics (BLI presumed)
[5] = target: T2, recombinant human C2a, C-terminal …; assay: binding kinetics (BLI presumed)

Row | Dissociation (%) pH 7.4 [1] | binding result [2] | binding result [3] | Kd [4] | koff [4] | kon [4] | Kd [5] | koff [5] | kon [5] | Binder
1 | 3.59% | no binding (tested: 100 nmol/L) | no binding (tested: 100 nmol/L) |  |  |  |  |  |  | anti-C2 antibody 3.2 (antibody, IgG4, V domains shown, Recombinant; also called WT; "WT" 3.2) VH: EVQLLESGGGLVQPGGSLRLSCAASGFTFRHYAMSWVRQAPGKGLEWVSLISGSGASTFYADSVKGRFTISRDNSENMLYLQMNSLRAEDTAVYYCAKDSLAVAGSEYFQHWGQGTLVTVSS VL: SYVLTQAPSVSVAPGQTARITCGGNYFGGKSVHWYQQRPGQAPVLVVYDDSDRPSGIPERFSGSKSGNTATLAISRVEAGDEAAYYCQVYDTSSDHWVFGGGTKLTVL
2 |  |  |  | 0.376 nM | 8.79e-05 s⁻¹ | 234000 M⁻¹ s⁻¹ | 0.347 nM | 6.68e-05 s⁻¹ | 193000 M⁻¹ s⁻¹ | anti-C2 antibody 69.44 (antibody, IgG4, V domains shown, Recombinant) VH: QVQLVQSGAEVKKPGASVKVSCKASGYSFTTYYMYWVRQAPGQGLEWMGIITPSGGSTTYAQKFQDRVTMTRDASTTTVYMELSSLRSEDTAVYYCARGYEGSYGFDHWGQGTLVTVSS VL: SYELTQPPSVSLSPGQTASITCSGDKLGNKYTCWYQQKPGQSPVLVIYQDNKRPSGIPERFSGSNSGNTATLTISGTQAMDEADYYCQTWDSSTAVFGGGTKLTVL

— patent US20250376539A1 (KIRA PHARMACEUTICALS SUZHOU, published 2025)
